Reference: the supplement of paper PMC10567573

B1: P2RY14 (parent)
chain: KKIFKSHLKSSRNSTSVKKKSSRN

Variants of: B1
Assay: protein stability index of a GFP-peptide fusion (GPS, HEK-293T) (PSI 1-6); higher = more stable
Conditions: c terminus: a fixed tail appended
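Also: lentivirally expressed fusions sorted by FACS into six bins by GFP to DsRed ratio, PSI derived from sequencing read proportions per bin multiplied by bin number.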

Protein stability index, by site and new letter:
I3: H 4.34 | K 4.18 | L 4.23 | M 4.77 | N 4.63 | P 4.38 | Q 4.14 | R 4.44 | S 4.6 | T 4.66 | V 4.04 | W 3.79 | Y 4.39
F4: A 4.49 | C 4.27 | D 4.6 | E 4.45 | G 4.56 | H 4.07 | I 4.3 | K 4.47 | L 4 | M 4.28 | N 4.49 | P 4.58 | Q 4.71 | R 4.48 | S 4.72 | T 4 | V 4.39 | W 3.96 | Y 3.67
K5: A 4.33 | C 4.05 | D 4.16 | E 3.89 | F 4.01 | G 4.44 | H 4.33 | I 3.55 | L 3.76 | M 3.95 | N 4.33 | P 4.18 | Q 4.27 | R 3.67 | S 4.2 | T 4.06 | V 3.93 | W 3.45 | Y 3.48
S6: A 3.68 | C 4.06 | D 4.62 | E 4.36 | F 3.34 | G 4.18 | H 3.9 | I 3.5 | K 4.33 | L 3.18 | M 3.82 | N 4.57 | P 3.69 | Q 4.07 | R 4.49 | T 4.11 | V 3.79 | W 3.26 | Y 3.34
H7: A 3.79 | C 4.05 | D 4.36 | E 4.41 | F 3.76 | G 4.27 | I 3.72 | K 4.39 | L 3.7 | M 3.79 | N 4 | P 3.74 | Q 3.67 | R 4.28 | S 4.15 | T 4.41 | V 3.93 | W 3.3 | Y 3.38
L8: A 4.56 | C 4.39 | D 4.58 | E 4.43 | F 4.04 | G 4.49 | H 4.05 | I 4.16 | K 4.29 | M 4.11 | N 4.31 | P 4.33 | Q 3.49 | R 4.14 | S 5.01 | T 4.3 | V 4.14 | W 3.95 | Y 3.59
K9: A 4.07 | C 4.37 | D 4.05 | E 4.51 | F 3.57 | G 4.01 | H 4.41 | I 3.7 | L 4.05 | M 4 | N 4.5 | P 4.47 | Q 4.04 | R 4.27 | S 3.87 | T 3.98 | V 3.39 | W 3.21 | Y 3.67
S10: A 4.08 | C 4.03 | D 4.41 | E 4 | F 3.38 | G 3.81 | H 4.14 | I 3.59 | K 4.15 | L 4.02 | M 4.01 | N 4.33 | P 4.24 | Q 3.83 | R 4.18 | T 4.17 | V 3.81 | W 3.46 | Y 3.54
S11: A 3.93 | C 3.93 | D 4.33 | E 4.35 | F 3.69 | G 4.26 | H 4.67 | I 3.98 | K 3.89 | L 4.12 | M 3.62 | N 3.96 | P 4.3 | Q 4.31 | R 4.44 | T 4.22 | V 4.31 | W 3.36 | Y 3.37
R12: A 4.17 | C 3.6
